Target: desmocollin 2 (DSC2) (human) (UniProt Q02487)
Experiment: flow cytometry on NCI-H358 cells, control human IgG

- MFI (ratio of intensity to control IgG): 9.48
B1: anti-DSC2 human antibody 332 (antibody, V domains shown)
VH: QVQLQQWGAGLLKPSETLSLTCAVYGGSFSGNYWSWIRQPPGKGLEWIGEINHSGNTKYNPSLKSRVAISADTSKNQFSLKLSSVTAADTAVYYCARVPFDWFHPPGEPPFYYYYGMDVWGQGTTVTVSS
VL: HVILTQPPSVSGAPGQRVTISCTGSSSNIGAGYDVHWYQQLPGTAPKLLIYGNSNRPSGVPDRFSGSKSGTSASLAITGLQAEDEADYYCQSYDSSLSGWVFGGGTKLTVPG

Reference: patent publication US20080260748A1
